Measured values taken from patent US20110281938, “APTAMERS TO TISSUE FACTOR PATHWAY INHIBITOR AND THEIR USE AS BLEEDING DISORDER THERAPEUTICS” (Baxter Healthcare S.A., published 2011).

Each binder was assayed against T1, TFPI (tissue factor pathway inhibitor, full-length) (Homo sapiens, UniProt P10646 SEQ:1-276) (assay: competition; meets binding-competition criterion). Details: tags: American Diagnostica 4500PC/4900PC, E. coli expressed.
T1 sequence (P10646 29-304): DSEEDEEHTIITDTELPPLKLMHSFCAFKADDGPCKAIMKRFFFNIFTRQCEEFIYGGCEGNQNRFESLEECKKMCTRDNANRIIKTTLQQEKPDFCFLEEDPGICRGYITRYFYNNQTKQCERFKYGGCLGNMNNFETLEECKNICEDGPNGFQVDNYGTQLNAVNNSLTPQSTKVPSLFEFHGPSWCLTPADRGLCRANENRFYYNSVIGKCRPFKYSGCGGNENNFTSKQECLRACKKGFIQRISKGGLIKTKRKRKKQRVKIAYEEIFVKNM
Description: (§1) The substituted ARC17480 molecules were assayed for binding and function. The assays used for this evaluation were the calibrated automated thrombogram (CAT) assay, a dot-blot binding-competition assay and a FXa activity assay. The results of these assays are summarized in Table 40 and depicted in FIG. 147. A mutation was considered tolerated for activity if it met the criteria of at least two of the three assays that were carried out. Mutations that are tolerated (“yes”) and not tolerated (“no”) are identified in Table 40. The experimental details and the criteria used for each assay are described in the following paragraphs. The molecules described in this example were first tested in the CAT assay and the dot-blot binding-competition assay. In most cases, molecules were only tested in the FXa assay if there was a discrepancy between the results in the CAT assay and the dot-blot binding-competition assay.
Each molecule was evaluated for binding to tissue factor pathway inhibitor (TFPI) in a binding-competition assay. For these experiments, 10 nM human TFPI (American Diagnostica, Stamford, Conn., catalog #4900PC) was incubated with trace amounts of radiolabeled ARC17480 and 5000 nM, 1666.67 nM, 555.56 nM, 185.19 nM, 61.73 nM, 20.58 nM, 6.86 nM, 2.29 nM, 0.76 nM or 0.25 nM of unlabeled competitor aptamer. ARC17480 was included as a competitor in every experiment as a control. For each molecule, the percentage of radiolabeled ARC17480 bound at each competitor aptamer concentration was used for analysis. The percentage of radiolabeled ARC17480 bound was plotted as a function of aptamer concentration and fit to the equation y=(max/(1+x/IC₅₀))+int, where y=the percentage of radiolabeled ARC17480 bound, x=the concentration of aptamer, max=the maximum radiolabeled ARC17480 bound, and int=the y-intercept, to generate an IC₅₀ value for binding-competition. The IC₅₀ of each aptamer was compared to the IC₅₀ of ARC17480 that was evaluated in the same experiment. A mutation was considered tolerated in the binding-competition assay if the IC₅₀ of that molecule was not more than 5-fold greater than that of ARC17480 evaluated in the same experiment. Tolerated mutations are indicated in Table 40 as meeting the assay criteria (“yes”) or not meeting the assay criteria (“no”).
In the case of GGUAUAUACUUGGCUCGUUAGGUGCGUAUAUA (mixed, 2'-OMe A/G/U, 2'-deoxy C, 3' idT) [ARC33151], the binding signal is reported as ≤ 5 fold IC50 of ARC17480.
For UGAAUAUACUUGGCUCGUUAGGUGCGUAUAUA (mixed, 2'-OMe A/G/U, 2'-deoxy C, 3' idT) [ARC33149], the binding signal was ≤ 5 fold IC50 of ARC17480.
For GGAAUAUACUUGGCUCGUUAGGUGCGUAUACA (mixed, 2'-OMe A/G/U and mC31, other C 2'-deoxy, 3' idT) [ARC33179], the binding signal was ≤ 5 fold IC50 of ARC17480.
For GGAAUAUACUUGGCUCGUUAGGUGCGUAUAUU (mixed, 2'-OMe A/G/U, 2'-deoxy C, 3' idT) [ARC33180], the binding signal was ≤ 5 fold IC50 of ARC17480.
For GUAAUAUACUUGGCUCGUUAGGUGCGUAUAUA (mixed, 2'-OMe A/G/U, 2'-deoxy C, 3' idT) [ARC33150], the binding signal was ≤ 5 fold IC50 of ARC17480.
For GGAUUAUACUUGGCUCGUUAGGUGCGUAUAUA (mixed, 2'-OMe A/G/U, 2'-deoxy C, 3' idT) [ARC33152], the binding signal was ≤ 5 fold IC50 of ARC17480.
In the case of GGAAUAUACCUGGCUCGUUAGGUGCGUAUAUA (mixed, 2'-OMe A/G/U and mC10, other C 2'-deoxy, 3' idT) [ARC33158], the binding signal is reported as ≤ 5 fold IC50 of ARC17480.
In the case of GGAAUAUACUUGGCUCGUUAGGUGCGUAUUUA (mixed, 2'-OMe A/G/U, 2'-deoxy C, 3' idT) [ARC33178], the binding signal is reported as ≤ 5 fold IC50 of ARC17480.
For GGAACAUACUUGGCUCGUUAGGUGCGUAUAUA (mixed, 2'-OMe A/G/U and mC5, other C 2'-deoxy, 3' idT) [ARC33153], the binding signal was ≤ 5 fold IC50 of ARC17480.

These binders were tested against T1, TFPI (tissue factor pathway inhibitor, …) (assay: competition; dot-blot; FXa assay criterion not met). Details: tags: American Diagnostica 4500PC/4900PC, E. coli expressed.
Description: (§2) Each molecule was evaluated for binding to tissue factor pathway inhibitor (TFPI) in a binding-competition assay. For these experiments, 10 nM human TFPI (American Diagnostica, Stamford, Conn., catalog #4500PC) was incubated with trace amounts of radiolabeled ARC17480 and 5000 nM, 1666.67 nM, 555.56 nM, 185.19 nM, 61.73 nM, 20.58 nM, 6.86 nM, 2.29 nM, 0.76 nM or 0.25 nM of unlabeled competitor aptamer. ARC17480 was included as a competitor in every experiment as a control. For each molecule, the percentage of radiolabeled ARC17480 bound at each competitor aptamer concentration was used for analysis. The percentage of radiolabeled ARC17480 bound was plotted as a function of aptamer concentration and fit to the equation y=(max/(1+x/IC₅₀))+int, where y=the percentage of radiolabeled ARC17480 bound, x=the concentration of aptamer, max=the maximum radiolabeled ARC17480 bound, and int=the y-intercept, to generate an IC₅₀ value for binding-competition. The IC₅₀ of each aptamer was compared to the IC₅₀ of ARC17480 that was evaluated in the same experiment. A substitution was considered tolerated in the binding-competition assay if the IC₅₀ of that molecule was not more than 5-fold greater than that of ARC17480 evaluated in the same experiment. Tolerated substitutions are indicated in Table 37 as meeting the assay criteria (“yes”) or not meeting the assay criteria (“no”).
For GGAAUAUACUUGGCUCGUUAGGUGCGUAUAUA (XNA, 2'-OMe except dC9, dC14, dC16; 2'-OMe C25; 3' idT) [ARC18541], the binding signal was ≤ 5 fold IC50 vs ARC17480.
With GGAAUAUACUUGGCUCGUUAGGUGCGUAUAUA (XNA, 2'-OMe except dC9, dC14, dC25; 2'-OMe C16; 3' idT) [ARC18540] the binding signal was ≤ 5 fold IC50 vs ARC17480.
With GGAAUAUACUUGGCUCGUUAGGUGCGUAUAUA (XNA, 2'-OMe except dC9, dC25; 2'-OMe C14 and C16; 3' idT) [ARC18545] the binding signal was ≤ 5 fold IC50 vs ARC17480.

The binders below were run against T1, TFPI (tissue factor pathway inhibitor, …) (assay: competition; dot-blot; CAT and FXa criteria not met). Details: tags: American Diagnostica 4500PC/4900PC, E. coli expressed.
Description: as §2
With GGAAUAUACUUGGCUCGTUAGGUGCGUAUAUA (XNA, 2'-OMe except dC9, dC14, dC16, dC25 and dT18; 3' idT) [ARC19462] the binding signal was ≤ 5 fold IC50 vs ARC17480.
With GGAAUAUACTUGGCUCGUUAGGUGCGUAUAUA (XNA, 2'-OMe except dC9, dC14, dC16, dC25 and dT10; 3' idT) [ARC19456] the binding signal was ≤ 5 fold IC50 vs ARC17480.

Each binder was assayed against T1, TFPI (tissue factor pathway inhibitor, …) (assay: competition; meets binding-competition criterion; CAT and FXa no). Details: tags: American Diagnostica 4500PC/4900PC, E. coli expressed.
Description: as §1
Each molecule was evaluated for binding to tissue factor pathway inhibitor (TFPI) in a binding-competition assay. For these experiments, 10 nM human TFPI (American Diagnostica, Stamford, Conn., catalog #4900PC) was incubated with trace amounts of radiolabeled ARC17480 and 5000 nM, 1666.67 nM, 555.56 nM, 185.19 nM, 61.73 nM, 20.58 nM, 6.86 nM, 2.29 nM, 0.76 nM or 0.25 nM of unlabeled competitor aptamer. ARC17480 was included as a competitor in every experiment as a control. For each molecule, the percentage of radiolabeled ARC17480 bound at each competitor aptamer concentration was used for analysis. […] The IC₅₀ of each aptamer was compared to the IC₅₀ of ARC17480 that was evaluated in the same experiment. A mutation was considered tolerated in the binding-competition assay if the IC₅₀ of that molecule was not more than 5-fold greater than that of ARC17480 evaluated in the same experiment. […]
In the case of GGAAUAUACUUGGTUCGUUAGGUGCGUAUAUA (mixed, 2'-OMe A/G/U, dT14, 2'-deoxy C, 3' idT) [ARC33162], the binding signal is reported as ≤ 5 fold IC50 of ARC17480.
In the case of GGAAUAUUCUUGGCUCGUUAGGUGCGUAUAUA (mixed, 2'-OMe A/G/U, 2'-deoxy C, 3' idT) [ARC33156], the binding signal is reported as ≤ 5 fold IC50 of ARC17480.
With GGAAUACACUUGGCUCGUUAGGUGCGUAUAUA (mixed, 2'-OMe A/G/U and mC7, other C 2'-deoxy, 3' idT) [ARC33155] the binding signal was ≤ 5 fold IC50 of ARC17480.
